B1: MurK (murein sugar kinase) (Tannerella forsythia 92A2) (protein)
chain: MILIADSGSTKTHWNVLDRGQVVGEIFTKGMNPFFQTPEEMGREIERTLLPQLNSNRFCEVHFFGAGCIPEKVPIVRNVLKGCLDVSSLIEVDTDMLAAAKASCGRSPGIVCIMGTGSNSCFYDGEKITANVSPLGFILGDEGSGAVLGKLLIGDLLKNQMGEELKEKFLRQYELTPANIIERVYRQPFPNRFLAGISPFLAENIEHPAIHSLVLNAFKSFLTRNVMQFDYTRYKAHFIGSVAYYYKDILEEAAAATGIRTGTIVRNPMEGLRTYYSTVAETV
notes: recombinant His6-tagged protein expressed in E. coli
B2: K1058 (Tannerella forsythia 92A2) (protein)
chain: MKLIAESGSTKTEWSLVEGEHLIQRVFTEGLNPFFQTRREISRSIRLGLPDSFFKRKLEQVFFYGAGCTSAEKKSVVEASLVAQFKTPAYVESDLLAAARGLFQHDSGIACILGTGSNSCFYDGHVIVKNVRAGGYILGDEGSGAALGKQFLSDVLKKLAPQVLIDDFFEKYDLTPHDVMDVVYNRPFPNRFLAEQSCFLADYLRLDYVKGLLLSNLRSFFLRNVMQYDYLNYPIRFVGSVAYNYADLLHQVGKEFGVELSVVEETPMGGLIKYHAFPPDDPES
notes: as for B1

Experiments:
purified protein [1] = substrate: CC(=O)N[C@@H]1[C@@H](O[C@H](C)C(=O)O)[C@H](O)[C@@H](CO)O[C@H]1O; test: purified protein; parameters: species or system Tannerella forsythia; conditions: active site, MurNAc-binding site; hydrogen bonds to G67, D95, N119, D141; lactyl ether at S133, P134, L135
purified protein [2] = substrate: CC(=O)N[C@@H]1[C@@H](O[C@H](C)C(=O)O)[C@H](O)[C@@H](CO)O[C@H]1O; test: purified protein; assay type: binding, Tannerella forsythia; conditions: active site, very similar to MurK MurNAc site; T69, R132, A133 differ

| Protein | Km (purified protein [1]) | kcat (purified protein [1]) | kcat/Km (purified protein [1]) | Km (purified protein [2]) | kcat (purified protein [2]) | kcat/Km (purified protein [2]) |
| --- | --- | --- | --- | --- | --- | --- |
| B1 | 180 ± 40 µM | 42 ± 4.2 s⁻¹ | 230000 ± 56000 M⁻¹ s⁻¹ |  |  |  |
| B2 |  |  |  | 28 ± 10 µM | 0.18 ± 0.01 s⁻¹ | 6400 ± 2900 M⁻¹ s⁻¹ |

Reference: PMC10465942, “N-acetylmuramic acid recognition by MurK kinase from the MurNAc auxotrophic oral pathogen Tannerella forsythia” (The Journal of Biological Chemistry, 2023)
